In patent publication US20110189154:

Assays:
[1] = biological target: T1, Tsa1 (S. cerevisiae 2-Cys peroxyredoxin) (UniProt P34760)
T1 sequence: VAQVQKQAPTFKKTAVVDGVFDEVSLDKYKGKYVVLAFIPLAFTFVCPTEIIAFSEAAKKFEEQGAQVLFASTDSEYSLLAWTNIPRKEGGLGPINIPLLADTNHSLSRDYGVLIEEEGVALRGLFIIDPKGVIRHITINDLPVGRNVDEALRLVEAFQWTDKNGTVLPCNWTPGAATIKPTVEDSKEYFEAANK

[2] = biological target: 6His-Prx2 (human peroxyredoxin Prx2), superoxidized in the cysteine sulfinic acid form (UniProt P32119)
[3] = biological target: 6His-Prx1 (human peroxyredoxin Prx1), superoxidized in the cysteine sulfinic acid form (UniProt Q06830)
6His-Prx1 (human peroxyredoxin Prx1), superoxidized in the cysteine sulfinic acid form, sequence (Q06830 whole entry): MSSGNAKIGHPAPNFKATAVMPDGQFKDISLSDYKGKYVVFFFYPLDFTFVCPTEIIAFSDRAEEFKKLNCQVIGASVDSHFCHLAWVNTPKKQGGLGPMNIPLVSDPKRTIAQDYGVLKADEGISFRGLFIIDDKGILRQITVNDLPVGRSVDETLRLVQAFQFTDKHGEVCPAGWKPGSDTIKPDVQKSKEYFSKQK

hSrx1 (human sulfiredoxin), sequence (chain, as listed by the source): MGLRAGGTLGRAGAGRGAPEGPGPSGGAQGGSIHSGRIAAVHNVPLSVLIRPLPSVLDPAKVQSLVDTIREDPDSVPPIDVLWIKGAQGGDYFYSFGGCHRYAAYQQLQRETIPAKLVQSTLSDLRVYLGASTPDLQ
6His-Prx2 (human peroxyredoxin Prx2), superoxidized in the cysteine sulfinic acid form, sequence (P32119 whole entry): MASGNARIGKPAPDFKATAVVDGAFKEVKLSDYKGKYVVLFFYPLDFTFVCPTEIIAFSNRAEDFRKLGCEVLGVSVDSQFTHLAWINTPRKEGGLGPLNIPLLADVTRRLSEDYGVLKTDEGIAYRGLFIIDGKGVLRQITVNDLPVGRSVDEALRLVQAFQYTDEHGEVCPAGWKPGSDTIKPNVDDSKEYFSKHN

| Substance | reduction of the Cys-SO2H form of Tsa1 [1] | reduction of superoxidized 6His-Prx2 in vitro [2] | reduction of superoxidized 6His-Prx1 in vitro [3] |
| --- | --- | --- | --- |
| HA-tagged Srx1^C84S (S. cerevisiae Srx1 with Cys84 changed to serine) | completely eliminates the formation of the disulfide bridge between Srx1 and Tsa1 and the reduction of the Cys-SO2H form of Tsa1 | – | – |
| hSrx1 (human sulfiredoxin) | – | shows the ability of hSrx1, expressed from Baculovirus in High Five cells, to reduce the human peroxyredoxins 6His-Prx1 and 6His-Prx2 superoxidized in the cysteine sulfinic acid form | shows the ability of hSrx1, expressed from Baculovirus in High Five cells, to reduce the human peroxyredoxins 6His-Prx1 and 6His-Prx2 superoxidized in the cysteine sulfinic acid form |
